# Reference: the DeepSol protein solubility set
# Assay: soluble on expression in E. coli; label from the status in PepcDB or PDB records
row,Sequence,soluble on expression in E. coli
1,MSADVVENGRAYNALWWAKVQSGGPQKVPADTPAVAGLARAVEPDGSGLWMLPTVPDGAGHGVLEELGAPPVAVEMPNETARVLAICVACCWTDRDASTWPGVTGTLAQVKAVYAGMRGRAEQSSDLTLIIGSLRRLHATHWLLWNEKAGEVRLGPRTITWSPSDLATLREICRVLPDPPPAVLVARAPEPTPDPLPVAASADGPAPSSDQAAASALPSPAAPPADGAPGPTPDPSPSLTSTSPAPSAPARSTEQSG,not soluble
2,MNQVEMTEFPVGKPQEALYGVASTPDGALWFTLAKGNAIGRLSPDGAVSRFPLPHTDGQPTTITCGPDGRPWFTLSSANAIGRLAPDGALRMFELPRPASRPFGIAGGHDGCLWFAEMAGDRIGRITIDGDIEEYDLPVKGGYPSCMAAGRDGLMWFTLNQAGAVGSISATAAPRIFPLGAADAAPVGIASDAQGALWIAQAGNGAIVRFDAGGRITEFPLHSRAARPHAIAADAAGNLWFTEWGANRIGRISEAGDLAGYELAAPGSEPHGIAIDPHGCVWAALETGRLVRLQASPRDLEHHHHHH,soluble
3,GGDFREYRDLMDTQVVLGFEGRPYHARDFYAAQILSIILGGGMSSRLFQEVREKRGLCYSIYAFHWGFSDIGLFGLHAATGQEKLKELLPVILDELSKVSKNIHTNELQRARAQYRATLTMAQENPSSQANFIARQILLYGREIPLSETIERLELITPARLTDLAGRLFINATPTLAAVGPVGSLMNFDNLTSTL,not soluble
4,MSLTVLILRCIMVKSTTRKSAKSDRRRYNRIARFYDLFETPMELMNFRKWRKMLFDLIKAEKGLVLEIGAGTGKNIPHYPSNVVALDISEKMLERAVRRAKESGKKVDFLLADAENLPFRSNSFDVVFTTFVFCSVDDPVRGLREAFRVLKKGGRAYFLEHMLPKSRFLHPLFNLLNPIFRAFGPEINRRTDENIQRAGFQIVKEYMLFGSVFRLIVAEKPLDSVDEASGYSLKRSESSDSSNFRRFIGQSLLPLRLTQLLREGHHHHHH,not soluble
5,MAHHHHHHMEEESHALKDPWFVSYIPQLTTEIVKNNYEGDWNLAKEALQQPLDYVRTVEEFWSTLNSLPKLHQLESSSTFVFARNNVDASYEAFPNGTRIIVDIRKAAMAEKATAVILSSVIGESVSQEVCGGKPICDVLRLSSRPNKESPELVRLEVWLSDQTYGKAVLAYVRKALNDVGMSQPHVIFGESLFEKEKKKKGK,soluble
6,MRCGIAGLCARAKKVLGEDPAGGTLLVFRGRMGDRLKILHWDGQDFCLYYKVLERGHFPWPKATEGKVALTPAQMAMLWEGIDWRQPRWTSAPTRM,not soluble
7,MGSDKIHHHHHHMKSKNLSPYIKYIELDRVRVPSFSRYPFHLPAVRNLDTLALHPKVTFLVGENGSGKSTILEAIAVAYGFNAEGGTKNFNFSSRRTHSDLSDYVKVVKGTRTPRNGFFLRAESFYNFASNLDDLDSEMAFGPSLIDSYGGRSLHEQSHGESFFAVFLNRFSGDGVYILDEPEAALSPSRQMSMLSRMHELVGEGAQFIIATHSPIIMAYPDALIYQIADDIEQVGYQETEHYRITRAFLNHPQKMLKLLLE,not soluble
8,MKLAIIIPVYNAEETIKRAILSVDTSVPYEIICINDGSTDQTQHVLTELQQKHPHIKVIHQSNQGAARSRNVGLEAMSEDVDAFLFLDADDEFLPSRIDLMVNAFNKNKETDVVIGQMARDVNGEWQVISTHQSMVKDAIVTLDRKPDILQSIGPGAKLFSSKYAGLRFDEDVVFCEEHTFIVKAFSKARDIQLIPNIVYGYNEREGSVTAQRADTFLPYMSDALKVRQRVMELLLLLDEKIYYSYRMDNLIVSYLIQAHLKKNNKITQSLLESVIEYMKAMQHTHYSGEAMFRIVRAVEQSATHWTKPLYLQWKKALSEVGIGRPGLIRFKLQVIPKKISFSGKESLKRIFKK,not soluble
9,MGSDKIHHHHHHMLKHADIWAAIDALARDHGLTASALARKAGLDPTTFNKSKRVTREGKPRWPSTESVAKVLEATGATMTAFVGYIEDTAQARQTANTIPLIGFAQAGDCGYFDDAGYPVGGSWDEIPFPEIGDPHAYALEVSGDSMEPLYRDGDVVIVSPAAGVRRGDRVVVRTTEGEVMVKQLVRQTAKRIELASINPAHPGRSLATEEVAWIARILWSSQ,not soluble
10,MSLLLGVENGRITQLGDAELLAGELDISVKIHDYTGKIICPGFVDTHVHYPQLAIIGSYGESLLHWLENYAFDEEKKFNDADHSLKTANHFLDELLRCGTTTAQVFGTVHPESVEGFFTAAEHRDLRMICGKVLMDRNGPLGLLDTPETSYVDSKNLIERWHGRSRLRYAVSPRFAPTSTPDQLATARQLLREYPGTHLQTHLSEDQEEIKWVKSLFPHCKNYLDIYKRAGLLGKRSTFAHCLHLTEADWEMLEHEGCSVAFCPSSNLFLGSGLFDLPRPQFANVKVGIGTDVGAGTSLSMLQTIADAYKTQRLAGNDLSPLSGLYMATLGGAKSLDCDADIGNFKIGKEADFTVLDPESTPLMSYRMQNCKSLEERLAVIVLLGDDRAILATYANGRCVHDRDIDEESEGHHHHHH,soluble
11,MEGDTVHWQTHTVFNQPIPLNNSNLYLSDGALCEAVTREGAGWDSDFLASIGQQLGTAESLELGRLANVNPPELLRYDAQGRRLDDVRFHPAWHLLMQALCTNRVHNLAWEEDARSGAFVARAARFMLHAQVEAGSLCPITMTFAATPLLLQMLPAPFQDWTTPLLSDRYDSHLLPGGQKRGLLIGMGMTEKQGGSDVMSNTTRAERLEDGSYRLVGHKWFFSVPQSDAHLVLAQTAGGLSCFFVPRFLPDGQRNAIRLERLKDKLGNRSNASCEVEFQDAIGWLLGQEGEGIRLILKMGGMTRFDCALGSHAMMRRAFSLAIYHAHQRHVFGNPLIQQPLMRHVLSRMALQLEGQTALLFRLARAWDRRADAKEALWARLFTPAAKFVICKRGMPFVAEAMEVLGGIGYCEESELPRLYREMPVNSIWEGSGNIMCLDVLRVLNKQAGVYDLLSEAFVEVKGQDRYFDCAVRRLQQQLRKPAEELGREITHQLFLLGCGAQMLKYASPPMAQAWCQVMLDTRGGVRLSEQIQNDLLLRATGGVCV,not soluble
12,MAHHHHHHMGKFVAEQYLRRGVSVTVLARDIAKAKSLFLPIADGQREQNRLASMGYRQLSSAAEKREMTASLHYRDFRRGDRHVLRYEFRNPRSVGGPSAGSANASCDQRFALELVEGDVGSTQDLEFSMRHASIVFYLTAALEEASGPALRADDRLRSSAAWWSLGSWFCGGRRFGGFLHALDACRRVDAHFVALTPLWVHGSCLSPFYWYRRLLTHPRGYCKAVQLQEQTLLSQSGSPGARCSLGADELEARQPGGDWGCWWRSRLSTEPPDDILIKSRSPVRFSLFRLSDVVFPSFNERIVASKNNRVDDDLHVTFIQQGDLDARLLANVLVKSIGLCNSVVESRIDIGGSLRGGTDMRDANAIFDLFEQLRNE,not soluble
13,MPDPLTVSGSFSPEDVKHIGLKSIISGQIIKKYSQNQNLRSIKNVKLIIPSKAVSVDRNERTLFIPCLKLLLNYRFSNNFNKVSQIEIDNVYAYVAVVFPDEEPESFGYYIGVDRNTMGHIAVVADPDSGKVWKLGKMRYHIHQKYQNIMNRLSNSGKNKQLKAVKKREKNIVKDLNHKISRKIVDLALYNGSGIKLENLKGIRKLNSKSNGAGKGKPDQNKDKKLTCSNEYSLNNWSFLQLQQFIEYKARLRGVEVVYIDPYATSKKCSRCGHTGNRQSKRFECPCCGHVDHADVNAAFNIALTPKDTGQFSAERDAGKGRTDTPQKVLARNAFSKRAAREKASPQFAWEVCQFLTLEHHHHHH,not soluble
14,MVMHIKQSTVRSMLIVARRGKKRLNLDPDALAVLTALINLLAQESVARAAQSAANTGSRHVTKEHLKRVIAQLMLDFAI,not soluble
15,MNIDELIAIDVHTHAEEPCCGPRDDGYDEFQAGMAKYFKNPAGHKGMLPTVQETAAYYRERKIGCVIFPVDAERETGFRRYENEEVAKIAAENSDIMIPFASIDPAKGKAGAREARRLVREFGVKGFKFHPTMQGFYPNDRMAYPLYEAIAEEGAITLFHTGQTGVGAGLRGGMAMRLKFSNPIHLDDVAVDFPDMPIILAHPSFPWQEEALSVATHKPNVYIDMSGWSPKYFPPILVQYANSLLKHKMLFGSDWPAMTPERWLNDFANISIKDEVRPLILKENARRLLKLLEHHHHHH,not soluble
